US20160376333A1 (University of Washington, published 2016)

What was measured:
[1] = target: T1, Epstein-Barr virus BHRF1 a.a. 1-161 with C-terminal avi-6his tag (Epstein-Barr virus); test: yeast display library, FACS sort at 400 nM BHRF1, deep sequencing
T1 construct: also called EBV BHRF1; BHRF1-biotin
T1 chain: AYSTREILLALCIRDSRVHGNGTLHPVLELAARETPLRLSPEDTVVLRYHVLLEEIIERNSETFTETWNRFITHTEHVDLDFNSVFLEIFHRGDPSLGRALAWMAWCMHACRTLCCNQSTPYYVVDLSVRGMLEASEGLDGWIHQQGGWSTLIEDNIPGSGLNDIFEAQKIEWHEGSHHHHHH

[2] = target: T1, Epstein-Barr virus BHRF1 a.a. 1-161 …; test: yeast display library, FACS sort at 100 nM BHRF1, deep sequencing

B1: Index 73 (designed binder)
chain: GKDLDEIIDEARKEMDDDADDGKKKAEKLLKLHAGTNHSQDDFNEAHRRWIAVALEEIGDLFNAALRAWRKIEEEIRKNQRRKEEAEKAKEKVSKEYERASRKAAELGKEFEERVEQG
Log2 enrichment ratio [1]: -2.27 log2 | Log2 enrichment ratio [2]: -3.14 log2

B2: Index 08 (designed binder)
chain: GWDARRALKYVYERMREDLEYARNQIDNMEDRADQYDARTEERKEFTKRWIALALMLIGDGFNAFERAKEWIDDGKNNNQRSSDEADYAKDEALKFIFYAAFEARRKGDELDKKAEGG
Log2 enrichment ratio [1]: -0.8 log2 | Log2 enrichment ratio [2]: -3.06 log2

B3: Index 13 (designed binder)
chain: GSKWEEDREKAKREAEKKLDEAKDKLDLYKDFALRFDASDELKTKWTLEWIALALEMIGDVFNYALEAKEFAEKKARNNLLLDDLKDLYKLYLALLAKEESKKAIEEGDKLREAIEKG
Log2 enrichment ratio [1]: -1.6 log2 | Log2 enrichment ratio [2]: -3.07 log2

B4: Index 74 (designed binder)
chain: GTDHQAFDEWARRELERIVEEARERAERLREWIEQKDASREELTKFFAIWIAISLMAIGDLFNVKEQAKRLAELLEFLGLQRKEEIEKSKKNAEKLADEAMKKASKLDAKVEKELMQG
Log2 enrichment ratio [1]: -2.62 log2 | Log2 enrichment ratio [2]: -3.38 log2

B5: Index 18 (designed binder)
chain: GGTEDDIKDLAEKWRDDMKKEFLREFLRIKEWTKYWGWREEGRKLATLRWIALSLMHIGDLFNLKELAKKLVDDIKKKGLEHEERAERAREEAEKIMEKAAKLDSILSKLAAKLIEEG
Log2 enrichment ratio [1]: 0.98 log2 | Log2 enrichment ratio [2]: -1.36 log2

B6: Index 12 (designed binder)
chain: GEDDDKVLKWALEALRKVLDEAKEKLEKLKKYTDGDGFGEDYRREFFRKWIAIALEAIGDIFNIMMEALQKADKHKKLNTHDSQKADEAKEKIKKFADEAEERAKELAKKGEAWLLKG
Log2 enrichment ratio [1]: -1.37 log2 | Log2 enrichment ratio [2]: -2.56 log2

B7: Index 69 (designed binder)
chain: GEQAEKALRRAKRRAKWGLDDAKDILDDIEAEIRWYYPRDEERFKFVDRWIAAMLMVIGDLFNAKREALERALRLMRKGLISQDQFKKFMEKLEKIILWGKFQARKLGREKESEITQG
Log2 enrichment ratio [1]: -3.99 log2 | Log2 enrichment ratio [2]: -3.25 log2

B8: Index 24 (designed binder)
chain: GELAREAAEEAHRRVEEDARDAKNRLDEFKKRYKITQLSKSDISRATALWIAAALDAIGDIFNAKQKAEKILGLWYKLGLVQLQEFLEKEDKARYHWQAALERAFEAGRDMLEVAAYG
Log2 enrichment ratio [1]: -2.95 log2 | Log2 enrichment ratio [2]: -3.02 log2

B9: Index 70 (designed binder)
chain: GLLWLAIILKAEELARKKDDEAEERIRRLEDEKRKGDPGTLGEAERTDRWIAIMLMAIGDAFNVMLEAKEEAEKLEKLGLVHKELLEKVKEEAERLFERSSDNFEEAAKRADDMEKEG
Log2 enrichment ratio [1]: -3.13 log2 | Log2 enrichment ratio [2]: -3.02 log2

B10: Index 06 (designed binder)
chain: GRSANDILKQFLEMLQEALRKFDEKKNKIEDEWKQFDLSTQRREEATHKWIAAALMAIGDMFNALRWALEEALKAKLKNLQSSDDLKEAIERMMKLMLEKAQEIQEKGRELADKIEQG
Log2 enrichment ratio [1]: -1.45 log2 | Log2 enrichment ratio [2]: -2.35 log2

B11: Index 22 (designed binder)
chain: GSSAEDLRDWARDQHEKDVDKMEKRLRLLYFELARKDFNEEELKKATEKWIAAALDAIGDHFNAALKARLLARDAAKKGLIDRNKLDEVEKMAELFEELGERKAALKGREFLRWVLLG
Log2 enrichment ratio [1]: -2.4 log2 | Log2 enrichment ratio [2]: -3.03 log2

B12: Index 00 (Design BbpD04) (designed binder)
chain: GADWKKVLDKAKDIAENRVREIKQKLEEFYKKAMKLDLTQEMRRKLMLEWIAAMLMAIGDIFNAIEQAKQEADKLKKAGQVNSQLLDELKRRLEELKEEASRKCHDYGREFQLKLEYG
Log2 enrichment ratio [1]: 3.19 log2 | Log2 enrichment ratio [2]: 3.92 log2

B13: Index 19 (designed binder)
chain: GERVEEILRKMLDDALLHFLEHRDDARERKERGERHQPRDEEREELSHDWIAAALMAIGDIFNAKLRAEERAEEFLKWGLRSQDDKKELEERAKEAAKIALKWAEEAGKEADEAEKAG
Log2 enrichment ratio [1]: -1.98 log2 | Log2 enrichment ratio [2]: -2.97 log2

B14: Index 21 (designed binder)
chain: GFDWKKVLDKAKDLAENDVREAKQKLEEFYKKAMKLDLTQEMRRKLMLEWIAAMLMAIGDIFNAIEQGKQEADKLKKLGKVLSQLLDELKRRLEELKEEAALKAHDFGREFELKLLFG
notes: also called computational precursor for BbpD04
Log2 enrichment ratio [1]: -2.81 log2 | Log2 enrichment ratio [2]: -3.38 log2

B15: Index 17 (designed binder)
chain: GRSAEIMREILEKQAEDDAKKIRDIAQKWKERRKRYDPRDEEREEEVEKWIAFALMAIGDIFNLARWALLQARWERRWNLSHEDEGKNHEENVKDAEDRAHWKAREAAREGAKMSWEG
Log2 enrichment ratio [1]: -2.54 log2 | Log2 enrichment ratio [2]: -3.41 log2

B16: Index 10 (designed binder)
chain: GDSDDDDLKDALLRMLWAAAQAIYHSLENMERKEKFDMHFEEERRDTLQWIADALRAIGDAFNEMMRRRRELEKKRENNIISEQRARLYEEFLKRFAEWASRELAKAGKKEANKLNEG
Log2 enrichment ratio [1]: 0.62 log2 | Log2 enrichment ratio [2]: -0.72 log2

B17: Index 72 (designed binder)
chain: GGSYDDIADLAKKLHKKIAEEAKKKIDELLKEAFEDKPYEEEFAKKMFKWIAIALMAIGDLFNAAELAKRLAEDLKKDNNRDENKAEEAKQRAEQFEKEGAEELAKKGEEAAKKLAGG
Log2 enrichment ratio [1]: -3.47 log2 | Log2 enrichment ratio [2]: -3.34 log2

B18: Index 05 (designed binder)
chain: GKDADKKKDEAKKKAEWKEREVFERLEKMEWKKRKDSVSKDDARKFTLKWIADDLELIGDLFNLKEEAREVAEDAARNNQITEEQREEDEKDLEKLAKEHSWRAAYRGKLKAKEFWEG
Log2 enrichment ratio [1]: -0.83 log2 | Log2 enrichment ratio [2]: -2.5 log2

B19: Index 14 (designed binder)
chain: GLSADDLFDYAEDRMREGWKDFEELAGEAEKKAKEHTLSDQERREATEKWIAAALELIGDAFNAIRWAEELGKLYVKLNLDDKQKVEELKKKLEERAKEEAQKARKRGDKLEDLADSG
Log2 enrichment ratio [1]: -0.65 log2 | Log2 enrichment ratio [2]: -2.91 log2

B20: Index 27 (designed binder)
chain: GLDGDYLMDEAFKFIERERERAEEEAKKMYELAEKGKYYEERKTKATKFWIALALEMIGDFFNFEMWFRKYAEKNRENNQRREDLLRRWELLLRFQAWDAAERARELGKRLELWFKKG
Log2 enrichment ratio [1]: 0.86 log2 | Log2 enrichment ratio [2]: -0.72 log2

B21: Index 09 (designed binder)
chain: GKEAKKRIQEALEEAKRKAEKLLREHEKKKKEHLLGDKRDREKTEETDKWIAEALMLIGDIFNLYMKFEWEKEREKKLGLLREEEEKEVEDEAKDAYLKALKLAYLVSKKGHEVAELG
Log2 enrichment ratio [1]: -2.05 log2 | Log2 enrichment ratio [2]: -2.55 log2

B22: Index 11 (designed binder)
chain: GNILDEAKDEMREEMEKLWKKFKDEVEEERKEAEREEKHFQERAELTKRWIARALMAIGDMFNRFREAKEKLEKRRELGLISEEDARKALLLLEEFMRRMAEFAKKLGDDLMRDAEKG
Log2 enrichment ratio [1]: -1.55 log2 | Log2 enrichment ratio [2]: -2.62 log2

B23: Index 23 (designed binder)
chain: GEDEEKDHKDTEEKARRLHERARDMLDKVKDLEEKTDAQDNERRRATHDWIAAALMMIGDAFNSFEDTKRRAEKKRELNLISEDEAKEKIKRAEELRKRIYELLKKAAEFAREAEKGG
Log2 enrichment ratio [1]: -0.17 log2 | Log2 enrichment ratio [2]: -1.72 log2

B24: Index 20 (designed binder)
chain: GLRFEEIERYAREEADKIADEAKERFEKLKKLFLWLTDKDEERLKMTHLWIAGALEAIGDLFNAAELAKELAEKAARLTSQDANRRDEARKKIDEAEKEAADKVSKAAKEAAKFFEQG
Log2 enrichment ratio [1]: -3.65 log2 | Log2 enrichment ratio [2]: -3.87 log2

B25: Index 07 (designed binder)
chain: GEEFKKKLKKWEEWLLKATNEAENQARNMWQKAEQTDLEDQQRIRAVDFWIAIALMAIGDKFNADQEGDEEFEKYKKKGRASEDKIKEAKDERDRAKKRWEQFVKEAGERAFRGEQLG
Log2 enrichment ratio [1]: -1.16 log2 | Log2 enrichment ratio [2]: -2.79 log2

B26: Index 28 (designed binder)
chain: GKEGSRLREEAERRGLRKLLEVILRWLEDALRMIYGQDKDEDRKEATHRWIADALELIGDIFNALLEAFIKMELARRFGLLEEQRARDEKKKALERAEEFSKRARELGEKLTQILEGG
Log2 enrichment ratio [1]: -2.85 log2 | Log2 enrichment ratio [2]: -4.52 log2

B27: Index 26 (designed binder)
chain: GRFAERLFKKMLIKQLLNTQYFRDQLKQLKDRSKKYDASDDDKDEATHRWIAFALMAIGDVFNDKLEIELLIELFAKYGLVHEEERKEFRKRLDEFEKIFRKWLDELKKLALEALNQG
Log2 enrichment ratio [1]: -2 log2 | Log2 enrichment ratio [2]: -2.74 log2

B28: Index 25 (designed binder)
chain: GANHEDAIWEALYKAEDAFKDHLKEIEIYREFSEKFWPLDDYKDNLRAHWIAAALAAIGDWFNVFFEAELKFREAKRKNLRSEDDIKKYRWRLFKALDIAIDLADRVGDEAEKAERLG
Log2 enrichment ratio [1]: -1.53 log2 | Log2 enrichment ratio [2]: -2.9 log2

B29: Index 71 (designed binder)
chain: GERAERARDWAKDQMDDELEKAREKLWKLAFIAFKFYLKLELLFKLMFRWIAIMLEAIGDFFNVWAIAKRWLERYKLQNNIRKEEIEKAKERAKKLYEEAADKAAKLGRFYMKLLTSG
Log2 enrichment ratio [1]: -3.07 log2 | Log2 enrichment ratio [2]: -2.58 log2
